{"source": "paper PMC7744550", "about": "“Structurally distinct telomere-binding proteins in Ustilago maydis execute non-overlapping functions in telomere replication, recombination, and protection”", "key": {"[1]": {"biological_target": "T1, Trf2∆N-FG3 (Ustilago maydis) (UniProt A0A0D1E1Z3)", "T1 sequence": "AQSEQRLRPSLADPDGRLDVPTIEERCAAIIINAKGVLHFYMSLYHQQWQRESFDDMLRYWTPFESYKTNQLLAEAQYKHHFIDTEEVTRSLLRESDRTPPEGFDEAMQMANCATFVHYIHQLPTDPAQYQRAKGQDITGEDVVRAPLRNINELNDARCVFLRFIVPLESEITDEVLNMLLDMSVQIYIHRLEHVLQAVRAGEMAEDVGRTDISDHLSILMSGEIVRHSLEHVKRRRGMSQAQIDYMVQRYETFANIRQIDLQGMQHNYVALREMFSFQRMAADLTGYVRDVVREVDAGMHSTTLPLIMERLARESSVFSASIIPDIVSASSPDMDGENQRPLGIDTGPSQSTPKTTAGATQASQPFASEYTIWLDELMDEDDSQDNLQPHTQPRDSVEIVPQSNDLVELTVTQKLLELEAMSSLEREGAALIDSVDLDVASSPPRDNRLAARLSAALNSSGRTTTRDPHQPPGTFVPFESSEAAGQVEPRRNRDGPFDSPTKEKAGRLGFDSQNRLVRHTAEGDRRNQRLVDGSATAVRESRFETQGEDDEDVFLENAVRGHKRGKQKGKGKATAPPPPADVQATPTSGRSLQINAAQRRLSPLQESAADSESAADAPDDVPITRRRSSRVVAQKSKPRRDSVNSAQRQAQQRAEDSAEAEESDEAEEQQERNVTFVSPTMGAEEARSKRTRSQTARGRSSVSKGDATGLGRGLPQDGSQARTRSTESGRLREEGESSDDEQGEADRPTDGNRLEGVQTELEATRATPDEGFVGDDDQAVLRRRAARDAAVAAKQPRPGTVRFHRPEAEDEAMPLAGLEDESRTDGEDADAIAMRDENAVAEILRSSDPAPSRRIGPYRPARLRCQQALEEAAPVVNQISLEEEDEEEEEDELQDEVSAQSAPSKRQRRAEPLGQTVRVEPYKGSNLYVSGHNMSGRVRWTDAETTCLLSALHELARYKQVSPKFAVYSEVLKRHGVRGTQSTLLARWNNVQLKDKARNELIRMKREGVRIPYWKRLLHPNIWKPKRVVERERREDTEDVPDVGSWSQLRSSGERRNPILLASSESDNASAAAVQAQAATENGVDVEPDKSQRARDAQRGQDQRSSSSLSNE", "assay": "EMSA", "details": "25 mM HEPES-KOH pH 7.5, 5% glycerol, 3 mM MgCl2, 0.1 mM EDTA, 1 mM DTT, 0.5 µg/µl BSA, 1-10 nM 32P probe, 22 °C 15 min; 6% native PAGE in 0.2x TBE"}, "[2]": {"biological_target": "T2, Tay1-FG (Ustilago maydis) (UniProt A0A0D1CTG7)", "T2 sequence": "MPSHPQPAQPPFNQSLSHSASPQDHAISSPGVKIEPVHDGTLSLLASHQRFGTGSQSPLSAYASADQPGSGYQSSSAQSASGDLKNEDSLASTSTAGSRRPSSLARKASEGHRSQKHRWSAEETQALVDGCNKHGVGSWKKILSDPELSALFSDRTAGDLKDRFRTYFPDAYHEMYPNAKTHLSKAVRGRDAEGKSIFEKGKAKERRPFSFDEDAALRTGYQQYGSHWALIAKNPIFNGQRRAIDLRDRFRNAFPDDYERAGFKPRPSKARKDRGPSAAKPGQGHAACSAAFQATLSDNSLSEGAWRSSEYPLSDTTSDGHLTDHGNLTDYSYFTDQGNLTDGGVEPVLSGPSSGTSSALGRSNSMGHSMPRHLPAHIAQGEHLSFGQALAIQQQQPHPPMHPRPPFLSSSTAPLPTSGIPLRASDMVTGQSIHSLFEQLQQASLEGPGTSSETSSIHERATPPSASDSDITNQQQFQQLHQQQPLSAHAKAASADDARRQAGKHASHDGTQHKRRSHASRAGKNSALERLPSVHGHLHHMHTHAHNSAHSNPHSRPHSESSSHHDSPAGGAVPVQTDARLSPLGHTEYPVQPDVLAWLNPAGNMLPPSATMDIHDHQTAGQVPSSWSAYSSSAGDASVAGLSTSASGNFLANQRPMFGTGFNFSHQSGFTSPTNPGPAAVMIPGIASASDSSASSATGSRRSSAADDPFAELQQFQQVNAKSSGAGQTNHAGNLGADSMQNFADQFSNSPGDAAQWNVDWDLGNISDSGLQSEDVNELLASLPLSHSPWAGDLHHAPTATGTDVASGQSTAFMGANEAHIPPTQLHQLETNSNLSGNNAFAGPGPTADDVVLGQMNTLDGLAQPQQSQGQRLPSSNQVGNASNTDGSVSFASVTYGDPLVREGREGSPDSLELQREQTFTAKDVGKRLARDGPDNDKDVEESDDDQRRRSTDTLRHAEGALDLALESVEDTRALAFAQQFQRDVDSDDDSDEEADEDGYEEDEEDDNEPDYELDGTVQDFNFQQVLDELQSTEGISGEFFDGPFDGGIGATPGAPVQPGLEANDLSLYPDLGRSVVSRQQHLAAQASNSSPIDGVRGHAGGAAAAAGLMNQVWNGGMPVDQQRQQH", "assay": "EMSA", "details": "25 mM HEPES-KOH pH 7.5, 5% glycerol, 3 mM MgCl2, 0.1 mM EDTA, 1 mM DTT, 0.5 µg/µl BSA, 1-10 nM 32P probe, 22 °C 15 min; 6% native PAGE in 0.2x TBE"}, "[3]": {"biological_target": "T3, Tay1N274-FG (Ustilago maydis) (UniProt A0A0D1CTG7)", "T3 sequence": "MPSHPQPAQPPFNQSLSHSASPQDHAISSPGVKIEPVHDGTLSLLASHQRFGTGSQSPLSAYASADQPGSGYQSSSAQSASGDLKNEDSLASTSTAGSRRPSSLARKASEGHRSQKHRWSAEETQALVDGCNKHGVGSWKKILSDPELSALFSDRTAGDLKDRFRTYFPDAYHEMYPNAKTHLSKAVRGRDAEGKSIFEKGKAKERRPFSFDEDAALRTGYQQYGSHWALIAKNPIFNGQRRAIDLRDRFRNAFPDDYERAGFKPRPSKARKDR", "assay": "EMSA", "details": "25 mM HEPES-KOH pH 7.5, 5% glycerol, 3 mM MgCl2, 0.1 mM EDTA, 1 mM DTT, 0.5 µg/µl BSA, 1-10 nM 32P probe, 22 °C 15 min; 6% native PAGE in 0.2x TBE"}, "Tay1-FG": {"biological_target": "Tay1-FG (Ustilago maydis, UniProt A0A0D1CTG7 1-1127)", "assay": "competition; unlabeled competitor; 25 mM HEPES-KOH pH 7.5, 5% glycerol, 3 mM MgCl2, 0.1 mM EDTA, 1 mM DTT, 0.5 µg/µl BSA, 1-10 nM 32P probe, 22 °C 15 min; 6% native PAGE in 0.2x TBE", "details": "protein: recombinant; tags: C-terminal FLAG (His-SUMO cleaved by ULP1); blunt"}, "Trf2∆N-FG3": {"biological_target": "Trf2∆N-FG3 (Ustilago maydis, UniProt A0A0D1E1Z3 416-1528)", "assay": "EMSA; 25 mM HEPES-KOH pH 7.5, 5% glycerol, 3 mM MgCl2, 0.1 mM EDTA, 1 mM DTT, 0.5 µg/µl BSA, 1-10 nM 32P probe, 22 °C 15 min; 6% native PAGE in 0.2x TBE", "details": "protein: recombinant; tags: C-terminal FG3 (His-SUMO cleaved by ULP1)"}}}
{"molecule": "TTAGGGTTAGGGTTAGGGTTAGGG (double strand) [TTAGGG4 ds]", "values": [{"measurement": "Kd", "setting": "[1]", "result": 20, "unit": "nM"}, {"measurement": "Kd", "setting": "[2]", "result": 27, "unit": "nM"}, {"measurement": "Kd", "setting": "[3]", "result": 130, "unit": "nM"}]}
{"molecule": "Tay1-FG (natural protein)", "values": [{"measurement": "helicase activity of Blm (12.5 nM) on a non-telomeric DNA substrate with Tay1 at 0, 10, 30 and 90 nM", "setting": "Blm-FG (Ustilago maydis)", "result": 2.5, "unit": "fold"}]}
{"molecule": "CgTEL (dsDNA) DNA 1: TGGGGTCTGGGTGCTG DNA 2: CAGCACCCAGACCCCA", "values": [{"measurement": "binding result", "setting": "Tay1-FG", "result": "no binding"}]}
{"molecule": "TTAGGGTTAGGGTTAGGGTTAGGG (ssDNA)", "note": "[TTAGGG4 G-strand]", "values": [{"measurement": "binding result", "setting": "Trf2∆N-FG3", "result": "no binding"}]}
